We go through six molecules from patent US20110189095A1 (University of Texas, published 2011).

Sequences and labels used below:
B1: IL11 receptor of DU145 cells (receptor, human, UniProt Q14626 23-422, looked up)
chain: SSPCPQAWGPPGVQYGQPGRSVKLCCPGVTAGDPVSWFRDGEPKLLQGPDSGLGHELVLAQADSTDEGTYICQTLDGALGGTVTLQLGYPPARPVVSCQAADYENFSCTWSPSQISGLPTRYLTSYRKKTVLGADSQRRSPSTGPWPCPQDPLGAARCVVHGAEFWSQYRINVTEVNPLGASTRLLDVSLQSILRPDPPQGLRVESVPGYPRRLRASWTYPASWPCQPHFLLKFRLQYRPAQHPAWSTVEPAGLEEVITDAVAGLPHAVRVSARDFLDAGTWSTWSPEAWGTPSTGTIPKEIPAWGQLHTQPEVEPQVDSPAPPRPSLQPHPRLLDHRDSVEQVAVLASLGILSFLGLVAGALALGLWLRLRRGGKDGSPKPGFLASVIPVDRRPGAPNL
notes: whole, on cells; Unrelated transmembrane receptor, control of the co-immunoprecipitation
B2: synthetic PSI-derived peptide NSTFLQEGMPTSA (SEQ ID NO:23) (peptide)
peptide: NSTFLQEGMPTSA
notes: also called β1 integrin PSI-derived peptide
B3: β3 integrin of DU145 cells (receptor, human, UniProt P05106 27-788, looked up)
chain: GPNICTTRGVSSCQQCLAVSPMCAWCSDEALPLGSPRCDLKENLLKDNCAPESIEFPVSEARVLEDRPLSDKGSGDSSQVTQVSPQRIALRLRPDDSKNFSIQVRQVEDYPVDIYYLMDLSYSMKDDLWSIQNLGTKLATQMRKLTSNLRIGFGAFVDKPVSPYMYISPPEALENPCYDMKTTCLPMFGYKHVLTLTDQVTRFNEEVKKQSVSRNRDAPEGGFDAIMQATVCDEKIGWRNDASHLLVFTTDAKTHIALDGRLAGIVQPNDGQCHVGSDNHYSASTTMDYPSLGLMTEKLSQKNINLIFAVTENVVNLYQNYSELIPGTTVGVLSMDSSNVLQLIVDAYGKIRSKVELEVRDLPEELSLSFNATCLNNEVIPGLKSCMGLKIGDTVSFSIEAKVRGCPQEKEKSFTIKPVGFKDSLIVQVTFDCDCACQAQAEPNSHRCNNGNGTFECGVCRCGPGWLGSQCECSEEDYRPSQQDECSPREGQPVCSQRGECLCGQCVCHSSDFGKITGKYCECDDFSCVRYKGEMCSGHGQCSCGDCLCDSDWTGYYCNCTTRTDTCMSSNGLLCSGRGKCECGSCVCIQPGSYGDTCEKCPTCPDACTFKKECVECKKFDRGALHDENTCNRYCRDEIESVKELKDTGKDAVNCTYKNEDDCVVRFQYYEDSSGKSILYVVEEPECPKGPDILVVLLSVMGAILLIGLAALLIWKLLITIHDRKEFAKFEEERARAKWDTANNPLYKEATSTFTNITYRGT
notes: whole, on cells; Control of the co-immunoprecipitation; also called other integrins (anti-β3)
B4: CRKL of DU145 cells (cell extract, membrane fraction, cell surface or serum-free condition medium) (other)
chain: MSSARFDSSDRSAWYMGPVSRQEAQTRLQGQRHGMFLVRDSSTCPGDYVLSVSENSRVSHYIINSLPNRRFKIGDQEFDHLPALLEFYKIHYLDTTTLIEPAPRYPSPPMGSVSAPNLPTAEDNLEYVRTLYDFPGNDAEDLPFKKGEILVIIEKPEEQWWSARNKDGRVGMIPVPYVEKLVRSSPHGKHGNRNSNSYGIPEPAHAYAQPQTTTPLPAVSGSPGAAITPLPSTQNGPVFAKAIQKRVPCAYDKTALALEVGDIVKVTRMNINGQWEGEVNGRKGLFPFTHVKIFDPQNPDENE
notes: Native protein from human DU145 prostate cancer cells; also called secreted CRKL; extracellular CRKL
B5: recombinant His-tag CRKL (rCRKL) (other)
chain: B4 chain
notes: Open reading frame of full-length CRKL cDNA cloned in pET28a, expressed in BL21; also called recombinant CRKL; rCKRL protein; not shown: His-tag from pET28a vector

Test [1] concerns the target T1, β1 integrin of DU145 cells (membrane fraction / cell surface) (human, UniProt P05556 21-798).
T1 construct: Native β1 chain of human DU145 cells
The experiment in a line: reciprocal co-immunoprecipitation, DU145 membrane fractions.

Test [2] addresses B5. Description: ELISA, His-tag protein on coated synthetic peptide. The method, then:
(§1) Synthetic tumor-homing peptide ([…]; SEQ ID NO:1) or PSI-derived peptide ([…]; SEQ ID NO:23) were coated on microtiter plates followed by blocking, and washing. The following recombinant His-tag proteins were added to the coated plates: rCRKL, rCRKL-SH2 domain, rCRKL-SH3 (N) domain, and rCRKL-SH3 (C) domain. An unrelated control protein (α2-Heremans-Schmid glycoprotein; AHSG) served as a negative control. The mixtures were incubated, washed, and labeled with the appropriate antibodies. Secondary antibodies conjugated to horse-radish peroxidase (HRP) were added followed by adding TMB substrate (Calbiochem), and analyzed by an automated ELISA reader (Bio-Tek). To determine the inhibitory activity of the tumor-homing peptide, the PSI-derived peptide, or the phage clone displaying the corresponding tumor-homing peptide were incubated with the rCRKL-SH3 (C) domain. Unrelated cyclic peptide sequences and insertless phage (fd-tet) served as negative controls. The admixtures were incubated and added to wells coated with the tumor-homing peptide. After incubation, the wells were washed, labeled with the appropriate antibodies, and processed as above.
Background: ELISA stands for enzyme-linked immunosorbent assay.

Test [3] has as its target B5. The experiment in a line: ELISA, His-tag protein on coated synthetic peptide (FIG. 3A). The method, then:
as §1

For test [4], the target named is T2, β5 integrin of DU145 cells (human, UniProt P18084 24-799).
T2 construct: whole, on cells; Control of the co-immunoprecipitation; also called other integrins (anti-β5)
The experiment in a line: reciprocal co-immunoprecipitation, DU145 membrane fractions.

Test [5] addresses B3. Described as above.
The target of test [6] is B1. Described as above.
Test [7] addresses T3, αvβ3 integrin (Chemicon) (UniProt P06756 31-1048; P05106 27-788).
T3 construct: Bought protein coated at 1 µg/well; also called control integrin
Description: CRKL on wells coated with integrin at 1 µg/well, anti-CRKL detection (FIG. 5). The method, then: (§2) Phage binding assays on purified proteins were carried out as described (Giordano et al. 2001). Recombinant proteins were coated on microtiter wells as previous described (Cardo-Vila et al., 2003; Smith and Scott, 1993). Briefly, proteins were immobilized on microtiter wells overnight at 4° C. 50 μl of 1 μg/ml in PBS. Wells were washed twice with PBS, blocked with PBS containing 3% BSA for 2 hours at room temperature, and incubated with 10⁹ T.U. wild-type tumor-homing phage ([…]; SEQ ID NO:1), scrambled phage ([…] (SEQ ID NO:26), […] (SEQ ID NO:27), […] (SEQ ID NO:29), […] (SEQ ID NO:30)), mutant phage ([…] (SEQ ID NO:25), […] (SEQ ID NO:28)), PSI-derived cyclic phage ([…]; SEQ ID NO:23) or fd-tet phage in 50 μl of PBS containing 1.5% BSA. After 1 hour at room temperature, wells were washed ten times with PBS and phage were recovered by bacterial infection. ELISA with polyclonal anti-CKRL confirmed the presence and concentration of the CKRL recombinant proteins on the wells. To test the binding of the tumor-homing phage to SH3 containing proteins, microtiter-wells were coated at 4° C. overnight with 250 μg/ml of recombinant gst-SH3 domains (CKRL-D1, CKRL-D2, grb2-D1, grb2-D2, Lyn, src; Pronomics), rCKRL protein, and negative controls gst or BSA. […] After 3 hours, binding of CKRL to integrins was detected by using an anti-CKRL antibody followed by an HRP-conjugated anti-rabbit IgG. […]

The target in test [8] is T4, αvβ5 integrin (Chemicon) (UniProt P06756 31-1048; P18084 24-799).
T4 construct: Bought protein coated at 1 µg/well; also called control integrin
The test is described as above. The method, then: as §2

Bridge positions count the residues as written; N and C are the ends. Ends that are not written are not given here.

T1 sequence (P05556 21-798 limits assumed): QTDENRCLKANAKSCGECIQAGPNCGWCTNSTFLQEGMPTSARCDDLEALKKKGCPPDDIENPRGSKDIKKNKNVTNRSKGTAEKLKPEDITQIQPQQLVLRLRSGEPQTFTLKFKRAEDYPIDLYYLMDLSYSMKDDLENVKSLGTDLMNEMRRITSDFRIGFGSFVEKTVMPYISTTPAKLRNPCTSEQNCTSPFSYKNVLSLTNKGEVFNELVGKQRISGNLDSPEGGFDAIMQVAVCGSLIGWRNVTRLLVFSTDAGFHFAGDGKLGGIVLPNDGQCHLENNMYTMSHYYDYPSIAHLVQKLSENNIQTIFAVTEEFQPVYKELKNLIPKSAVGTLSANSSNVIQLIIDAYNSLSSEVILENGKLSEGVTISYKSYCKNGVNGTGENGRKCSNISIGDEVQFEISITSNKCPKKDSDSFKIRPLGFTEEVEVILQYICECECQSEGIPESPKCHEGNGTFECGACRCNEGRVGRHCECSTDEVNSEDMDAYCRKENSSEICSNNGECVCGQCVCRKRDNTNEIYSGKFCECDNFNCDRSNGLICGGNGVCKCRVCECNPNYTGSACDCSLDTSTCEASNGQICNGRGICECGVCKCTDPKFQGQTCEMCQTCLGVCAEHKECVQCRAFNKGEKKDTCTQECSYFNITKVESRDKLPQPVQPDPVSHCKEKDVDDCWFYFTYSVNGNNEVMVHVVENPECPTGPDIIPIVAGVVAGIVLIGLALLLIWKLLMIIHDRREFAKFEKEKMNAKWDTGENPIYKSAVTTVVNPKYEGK
T2 sequence (P18084 24-799): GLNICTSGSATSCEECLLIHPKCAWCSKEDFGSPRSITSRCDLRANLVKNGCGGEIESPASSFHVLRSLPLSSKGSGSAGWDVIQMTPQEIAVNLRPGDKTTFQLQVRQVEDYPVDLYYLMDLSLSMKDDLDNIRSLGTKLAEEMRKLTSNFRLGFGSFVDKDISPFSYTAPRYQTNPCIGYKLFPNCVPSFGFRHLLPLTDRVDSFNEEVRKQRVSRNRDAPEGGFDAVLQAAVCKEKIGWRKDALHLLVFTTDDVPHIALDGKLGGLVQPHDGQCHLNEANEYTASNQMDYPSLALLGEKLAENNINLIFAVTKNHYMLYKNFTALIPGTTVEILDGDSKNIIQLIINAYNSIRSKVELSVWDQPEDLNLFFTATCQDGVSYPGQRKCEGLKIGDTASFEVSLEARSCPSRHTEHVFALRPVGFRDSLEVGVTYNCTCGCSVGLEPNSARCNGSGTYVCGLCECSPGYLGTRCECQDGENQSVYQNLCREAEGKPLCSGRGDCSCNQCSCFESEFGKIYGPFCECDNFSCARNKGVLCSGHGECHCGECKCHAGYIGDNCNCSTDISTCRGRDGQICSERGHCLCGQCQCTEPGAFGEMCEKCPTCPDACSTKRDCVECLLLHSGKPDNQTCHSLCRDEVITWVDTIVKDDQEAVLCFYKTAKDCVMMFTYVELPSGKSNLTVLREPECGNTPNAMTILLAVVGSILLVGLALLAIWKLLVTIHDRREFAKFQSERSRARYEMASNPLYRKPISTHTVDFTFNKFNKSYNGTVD
T3 sequence (P06756 31-1048, one chain of several): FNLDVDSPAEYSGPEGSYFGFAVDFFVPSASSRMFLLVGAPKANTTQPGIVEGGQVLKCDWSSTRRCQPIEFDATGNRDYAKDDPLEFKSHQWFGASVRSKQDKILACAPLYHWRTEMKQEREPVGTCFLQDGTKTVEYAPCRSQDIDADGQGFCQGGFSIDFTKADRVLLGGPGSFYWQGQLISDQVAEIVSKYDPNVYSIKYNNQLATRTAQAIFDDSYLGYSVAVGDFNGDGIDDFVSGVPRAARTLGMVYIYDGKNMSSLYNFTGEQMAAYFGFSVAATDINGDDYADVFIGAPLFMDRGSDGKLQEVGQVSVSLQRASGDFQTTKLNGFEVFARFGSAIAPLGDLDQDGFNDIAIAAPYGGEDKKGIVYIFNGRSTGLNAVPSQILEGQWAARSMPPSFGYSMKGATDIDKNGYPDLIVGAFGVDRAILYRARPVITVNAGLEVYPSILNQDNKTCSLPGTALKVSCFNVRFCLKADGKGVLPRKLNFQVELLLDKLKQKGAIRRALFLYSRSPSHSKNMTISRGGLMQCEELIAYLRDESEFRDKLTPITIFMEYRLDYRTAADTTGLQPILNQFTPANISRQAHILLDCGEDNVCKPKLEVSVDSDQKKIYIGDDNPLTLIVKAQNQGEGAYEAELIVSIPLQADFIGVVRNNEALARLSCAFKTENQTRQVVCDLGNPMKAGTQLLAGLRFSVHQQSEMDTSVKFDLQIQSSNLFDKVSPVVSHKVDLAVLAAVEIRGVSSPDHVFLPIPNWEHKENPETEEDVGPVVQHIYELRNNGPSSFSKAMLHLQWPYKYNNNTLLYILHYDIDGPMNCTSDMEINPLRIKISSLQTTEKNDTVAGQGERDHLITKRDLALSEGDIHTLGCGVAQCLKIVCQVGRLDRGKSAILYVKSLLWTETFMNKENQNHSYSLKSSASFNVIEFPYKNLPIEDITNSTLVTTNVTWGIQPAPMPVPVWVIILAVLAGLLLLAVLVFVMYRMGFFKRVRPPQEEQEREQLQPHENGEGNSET
T4 sequence (P06756 31-1048, chain 1 of 2): as the sequence (P06756 31-1048, one chain of several) above
T4 sequence (P18084 24-799, chain 2 of 2): as the sequence (P18084 24-799) above

Consider B1, for which the binding result in test [1] is “no binding”.

On to B2, for which the binding result in test [2] is “binds”.

Regarding B3, the binding result in test [1] is “no binding”.

As to YRCTLNSPFFWEDMTHECHA (disulfide 3-18 (inferred), also called PSI domain-mimic peptide) [synthetic tumor-homing peptide YRCTLNSPFFWEDMTHECHA (SEQ ID NO:1)], the binding result in test [3] is recorded as “binds”.

B4: the binding result in test [4] is reported as “no binding”; in test [5] it was “no binding”; in test [1], “binds”; in test [6] it was “no binding”.

Consider B5, for which the binding result in test [7] and in test [8] was “no binding” in each case.
